Assay results taken from patent US20100255012A1 (Genmab, published 2010).

Legend:
human C1q = biological target: T1, human C1q (human, UniProt P02745 23-245; P02746 28-253; P02747 29-245); experiment: ELISA, antibody coated, bound C1q detected with rabbit anti-human C1q
T1 construct: Bought human C1q; also called first component of the classical complement cascade
Experimental: In short, microtiter ELISA plates (Greiner, Germany) were coated overnight at RT with the test antibodies serially diluted from 10 μg/ml to 0.06 μg/ml in PBS. Plates were emptied and wells were blocked with 200 μl ELISA-diluent per well (0.1 M NaPO₄, 0.1 M NaCl, 0.1% gelatin and 0.05% Tween-20), at RT for 30 minutes. […] After washing the plates (3×) with PBST, wells were incubated with HRP-conjugated swine anti-rabbit IgG-Fc (DAKO, P0300, lot #069) diluted in ELISA diluent (1:2500, 100 μl/well, RT, 1 hour). Thereafter, plates were washed thrice and assays were developed with freshly prepared 1 mg/ml ABTS solution (ABTS: 2,2′-azino-bis[3-ethylbenzthiazoline-6-sulfonic acid]); 2 tablets of 5 mg in 10 ml ABTS buffer, Boehringer Mannheim, Ingelheim, Germany) at RT in the dark for 30 minutes. Absorbance was measured at 405 nm in an ELISA plate reader (Biotek Instruments Inc., Winooski, USA).

[1] = biological target: the molecule itself; experiment: gel filtration on Superdex 200 (eluted at about 70 kD); self-association of half-molecules
Experimental: Samples (100 μl) were applied to a Superdex 200 HR 10/30 column (Amersham Biosciences, Uppsala, Sweden), which was connected to a HPLC system (ÄKTA explorer) from Amersham Biosciences, Uppsala, Sweden. The column was first equilibrated in PBS. Fractions of 250 μl were collected, in which Bet v 1 specific IgG was measured using the antigen binding assay.
To test the antigen binding of the Bet v 1 specific antibodies, a sample of diluted antibody was incubated overnight at room temperature with 0.75 mg Protein-G sepharose (Amersham Biosciences, Uppsala, Sweden) in 750 μl PBS/AT (PBS supplemented with 0.3% BSA, 0.1% Tween-20, 0.05% NaN3) together with 50 μl diluted ¹²⁵I-labelled Bet v 1 or ¹²⁵I-labelled Fel d 1. […] After washing the Sepharose suspension with PBS-T (PBS supplemented with 0.1% Tween-20), the bound radioactivity was measured. The results were expressed as the amount of radioactivity relative to the amount added.

T1 sequence (P02745 23-245 limits assumed, chain 1 of 3): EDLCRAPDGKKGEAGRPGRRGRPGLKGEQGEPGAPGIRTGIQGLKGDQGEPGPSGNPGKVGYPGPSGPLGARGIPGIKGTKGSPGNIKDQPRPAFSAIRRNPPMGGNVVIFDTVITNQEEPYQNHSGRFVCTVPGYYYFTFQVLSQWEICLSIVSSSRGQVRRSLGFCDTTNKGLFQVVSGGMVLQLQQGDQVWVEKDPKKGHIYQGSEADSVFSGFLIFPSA
T1 sequence (P02746 28-253 limits assumed, chain 2 of 3): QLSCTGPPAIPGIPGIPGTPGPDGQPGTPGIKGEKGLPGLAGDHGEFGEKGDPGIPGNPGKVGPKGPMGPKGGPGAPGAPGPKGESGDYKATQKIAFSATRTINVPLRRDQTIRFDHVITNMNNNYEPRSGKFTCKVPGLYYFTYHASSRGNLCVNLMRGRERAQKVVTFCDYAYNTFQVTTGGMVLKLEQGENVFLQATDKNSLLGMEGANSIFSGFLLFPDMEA
T1 sequence (P02747 29-245 limits assumed, chain 3 of 3): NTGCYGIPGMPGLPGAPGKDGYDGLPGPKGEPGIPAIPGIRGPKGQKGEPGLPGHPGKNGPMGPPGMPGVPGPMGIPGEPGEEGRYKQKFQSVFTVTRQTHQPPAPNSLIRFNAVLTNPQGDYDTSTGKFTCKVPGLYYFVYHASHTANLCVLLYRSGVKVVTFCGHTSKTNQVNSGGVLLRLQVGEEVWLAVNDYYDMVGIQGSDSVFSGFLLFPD

B1: 7D8-HG (antibody)
heavy: EVQLVESGGGLVQPDRSLRLSCAASGFTFHDYAMHWVRQAPGKGLEWVSTISWNSGTIGYADSVKGRFTISRDNAKNSLYLQMNSLRAEDTALYYCAKDIQYGNYYYGMDVWGQGTTVTVSSASTKGPSVFPLAPCSRSTSESTAALGCLVKDYFPEPVTVSWNSGALTSGVHTFPAVLQSSGLYSLSSVVTVPSSSLGTKTYTCNVDHKPSNTKVDKRVAPEFLGGPSVFLFPPKPKDTLMISRTPEVTCVVVDVSQEDPEVQFNWYVDGVEVHNAKTKPREEQFNSTYRVVSVLTVLHQDWLNGKEYKCKVSNKGLPSSIEKTISKAKGQPREPQVYTLPPSQEEMTKNQVSLTCLVKGFYPSDIAVEWESNGQPENNYKTTPPVLDSDGSFFLYSRLTVDKSRWQEGNVFSCSVMHEALHNHYTQKSLSLSLGK
light: not shown
notes: Half-molecule of one heavy and one light chain; also called HuMab 7D8-HG; hingeless IgG4 anti-CD20
binding result (human C1q): no binding

B2: Betv1-HG (antibody, V domains shown)
VH: EVQLQQSGAELVKPGASVKLSCTASGFNIKDTYIHWVKQRPEQGLEWVGRIDPATGNTRYDPKFQGKATITADTSSNTAYLQLSSLTSEDTAVYYCASFRPGYALDYWGQGTSVTVSS
VL: DIVMTQSHKFMSTSVGDRVSFTCKASQDVFTAVAWYQQKPGQSPKLLIYWASTRRTGVPDRFTGSGSGTDYTLTISSVQAEDLALYYCQQHFSTPPTFGGGTKLEIKR
notes: Half-molecule of one heavy and one light chain; also called anti-Betv1-HG; hingeless IgG4 anti-Bet v 1
binding result [1]: no binding
